Target: metastin receptor (OT7T175) stably expressed on CHO cells
Test: cell-based or functional assay

Substance	Specific Activity: EC50 of the test compound based on EC50 of Metastin (45-54); agonist activity by change in intracellular calcium ion level (Fluo-4 NW, FLIPR) in receptor-expressing CHO cells
Compound No. 972: dimethylaminoethylureido-D-Tyr-Hyp-Asn-Thr-Phe-AzaGly-Leu-Arg(Me)-Trp-NH2 (peptide)	2.2
Compound No. 973: iso-butylureido-D-Tyr-Hyp-Asn-Thr-Phe-AzaGly-Leu-Arg(Me)-Trp-NH2 (peptide)	0.4

— patent publication US20110118172A1
